In patent US20250320277A1 (ALBERT EINSTEIN COLLEGE OF MEDICINE, published 2025):

How the values were obtained:
MAYV p62-E1 [1] = biological target: T1, MAYV p62-E1 (Mayaro virus (BeAr 20290)); assay: ELISA, plate-coated p62-E1, eight-point mAb dilution
T1 construct: extracellular domain

MAYV p62-E1 [2] = biological target: T1, MAYV p62-E1
MAYV p62-E1 [3] = biological target: T1, MAYV p62-E1; assay: BLI, […], global 1:1 fit; […]

B1: DC2.M17 (antibody, V domains shown)
VH: EVQLVESGSELKKPGASVRVSCEASGYSFTSHTIVWMRQAPGQGLECLGWINTNTGNPTYAQGFTGRFVFSLDTSVSTAYLQISSLKAADTAVYYCARVLKCLGGSASCSGHGYYDYGMAVWGQGTTVTVSS
VL: DIVLTQSPLSLPVTPGEPASISCRSSQSLLHSNGYNFLHWYLQKPGQSPQLLIYLGSIRASGVPDRFSGSGSGTDFTLKISRVEAEDVGVYYCMQALQTFMYTFGQGTKLEIK
Question: For B1, which EC50 (MAYV p62-E1 [1]) is on record?
Answer: The EC50 was 1.9 nM.

B2: DC2.M287 (antibody, V domains shown)
VH: EVQLVESGGGLVQPGGSLRLSCAASGFTFRDYWMIWVRQTPGKGLEWVANINRNGNEKHYVDSLKGRFTISRDNTKNSLYLQVNGLSAEDTAVYYCVRDSSPSFGPGNYYDAFDIWGQGTTVTVSS
VL: DIRVTQSPSSLSASVGDRVTITCRASQDIRNEVGWYQQKPGQAPKVLIFAASTLQSGVPSRFRGSGSGTVFTLTISSLQPEDLATYYCLQDFNYPRTFGQGTKVDIK
Question: How did the EC50 (MAYV p62-E1 [1]) turn out when B2 was run?
Answer: Its EC50 is 220 nM.

B3: DC2.M301 (antibody, V domains shown)
VH: QVQLVQSGAEVKKPGAAVKVSCKASGYTFSGYYIHWVRQAPGQGLEWMGWINPNSGGTDFAQKFQGRVTMTRDTSISTAYMELSRLRSDDTAVYLCSRDPGYTYGYPLGYWGQGTLVTVSS
VL: ETTLTQSPGTLSLSPGERATLSCRASQSVSSSYLAWYQQKPGQAPRLLIYGTSSRATGIPDRFSGRGSGTDFTLTISRLEPEDFAVYYCQQYGNSPPYTFGQGTKVDIK
Question: What does the source list for B3?
Answer: koff (MAYV p62-E1 [2]): 0.0047 s⁻¹; kon (MAYV p62-E1 [2]): 300000 M⁻¹ s⁻¹; EC50 (MAYV p62-E1 [1]): 4.6 nM; Kd (MAYV p62-E1 [3]): 15 nM
